The record followed here is publication PMC4449314.

What all share (assay): non-reducing SDS-PAGE of disulfide-linked products after anti-HA IP
For experiment [1], the target named is HA-tagged human DAP12 aspartic acid-to-alanine mutant (human).
Experiment [2] has as its target HA-tagged human DAP12 aspartic acid-to-asparagine mutant (human).
The target is the same in experiment [3]. This is another data set of the same source.
The target in experiment [4] is HA-tagged human DAP12 aspartic acid-to-glutamic acid mutant (human).
The target in experiment [5] is HA-tagged human DAP12 aspartic acid-to-glutamine mutant (human).
In experiment [6] the target is HA-tagged human DAP12 threonine-to-alanine mutant (human).

Like-named read-outs stand apart in the source and are kept apart here.

Regarding “HA-tagged human DAP12 aspartic acid-to-alanine mutant (natural protein)”, in experiment [1], the fold reduction of tetramer compared to WT worked out at 2 fold; the fold reduction of trimer compared to WT amounted to 10 fold; the stoichiometry N – broadly, a count of units in the complex or per binding partner – was 2.
Regarding “HA-tagged human DAP12 aspartic acid-to-asparagine mutant (natural protein)”, the stoichiometry N was found to be 2 in experiment [2] and 3 in experiment [3].
On to “HA-tagged human DAP12 aspartic acid-to-glutamic acid mutant (natural protein)”, for which the stoichiometry N in experiment [4] turned out to be 2.
Consider “HA-tagged human DAP12 aspartic acid-to-glutamine mutant (natural protein)”, for which the stoichiometry N in experiment [5] was found to be 2.
Take “HA-tagged human DAP12 threonine-to-alanine mutant (natural protein)”: in experiment [6], the fold decrease of trimer compared to WT is 5 fold, the fold increase of tetramer compared to WT was 2 fold and the stoichiometry N stood at 2.
